PMC6381839

Target: GoxA (glycine oxidase) from Pseudoalteromonas luteoviolacea, glycine-soaked (Gly-GoxA) (Pseudoalteromonas luteoviolacea)
Assay: crystal structure

Substance: GoxA (glycine oxidase) from Pseudoalteromonas luteoviolacea, glycine-soaked (Gly-GoxA) (enzyme)
- stoichiometry N: 4
